Data: the supplement of paper PMC10567573

B1: TMEM106C (parent)
chain: TVPEILVHNIVIFMRTSVKISYIG
B2: BEX1 (parent)
chain: EENMERIGEEVRQLMEKLREKQLS

Variants of: B1
Assay: protein stability index of a GFP-peptide fusion (GPS, HEK-293T) (PSI 1-6); higher = more stable
Conditions: c terminus: a fixed tail appended
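Also: lentivirally expressed fusions sorted by FACS into six bins by GFP to DsRed ratio, PSI derived from sequencing read proportions per bin multiplied by bin number.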

Variant | protein stability index
S17M | 2.69
S17N | 3.88
S17Q | 3.81
S17R | 3.66
S17T | 3.17
S17W | 3.7
S17Y | 3
V18A | 4.48
V18D | 2.15
V18E | 2.77
V18F | 2.33
V18G | 2.88
V18H | 2.13
V18K | 2.77
V18L | 4.24
V18M | 3.05
V18N | 3.44
V18P | 2.92
V18Q | 3.31
V18S | 3.02
V18T | 3.66
V18W | 2.45
V18Y | 4.01
K19A | 3.17
K19C | 4.43

Variant | protein stability index
K19D | 3.61
K19E | 4.38
K19F | 3.24
K19G | 2.77
K19H | 2.62
K19I | 3.18
K19L | 3.2
K19M | 1.77
K19N | 3.38
K19P | 2.88
K19Q | 3.02
K19S | 3.4
K19Y | 3.12
I20A | 2.52
I20C | 3.79
I20D | 3.71
I20E | 3.72
I20F | 3.1
I20G | 3.25
I20H | 4.04
I20K | 3.3
I20L | 3.56
I20N | 1
I20P | 3.39
I20Q | 4.14

Variant | protein stability index
I20R | 2.13
I20S | 3.33
I20T | 3.24
I20V | 1.4
I20W | 2.88
I20Y | 3.86
S21C | 2.77
S21D | 2.53
S21E | 3.24
S21F | 3.13
S21G | 1.99
S21H | 2.81
S21I | 3.51
S21K | 2.53
S21L | 3.4
S21M | 3.51
S21Q | 2.04
S21T | 3.42
S21W | 1.95
Y22A | 3.58
Y22C | 2.5
Y22D | 2.46
Y22F | 2.35
Y22G | 2.47
Y22H | 2.67

Variant | protein stability index
Y22I | 4.35
Y22K | 2.86
Y22L | 2.73
Y22M | 3.99
Y22N | 3.33
Y22P | 3
Y22Q | 3.85
Y22R | 3.04
Y22S | 2.31
Y22T | 2.84
Y22V | 4.14
Y22W | 2.65
I23A | 3.15
I23C | 2.41
I23D | 3.85
I23F | 3.86
I23G | 2.88
I23H | 1.77
I23K | 4.25
I23M | 3.06
I23N | 3.26
I23P | 3.49
I23Q | 4.15
I23R | 2.81
I23S | 3.05

Variant | protein stability index
I23T | 3.01
I23V | 2.4
I23W | 3.22
I23Y | 3.25
G24A | 2.22
G24C | 2.8
G24D | 2.27
G24E | 3.36
G24F | 3.89
G24H | 2.84
G24I | 3.38
G24K | 2.98
G24L | 2.82
G24M | 3.57
G24N | 3.8
G24R | 3.06
G24S | 3.61
G24T | 2.06
G24V | 2.95
G24W | 2.75
G24Y | 2.61

Variants of: B2
Assay: as above
Conditions: c terminus: a fixed tail appended

Variant | protein stability index
G8T | 4.55
R19Y | 3.92
S24Q | 4.95
M4T | 5.03
E1C | 4.29
R12C | 4.43
E9F | 3.7
R19H | 5.32
G8E | 4.04
L23T | 5.19
E10D | 4.76
V11N | 5.46
N3F | 4.74
L23H | 4.65
L18T | 5.53
G8H | 4.09
E10G | 4.24
R12L | 3.77
E2K | 3.64
R12K | 4.78
M15A | 2.64
N3A | 3.99
V11K | 5.09

Variant | protein stability index
E16N | 4.45
M4Y | 4.55
E9Y | 4.17
L18P | 5.86
N3P | 4.71
R6G | 5.28
E2D | 4.48
K17Q | 4.38
M4H | 5.09
E5C | 3.74
L23D | 5.21
E9G | 4.67
E20H | 3.74
E1F | 4.32
I7F | 4.78
N3R | 3.79
S24K | 3.54
Q22W | 2.28
K21C | 1.67
E10R | 2.79
L18H | 5.04
E16W | 2.85
M15L | 4.98
